T1: activin-A (UniProt P08476 311-426, [125I] label in the crosslinking assays (site not stated))
T1 construct: The ~14 kDa monomer implies the processed mature chain; Unlabelled protein was used in the luciferase assays; also called bA-bA
T1 sequence (looked up): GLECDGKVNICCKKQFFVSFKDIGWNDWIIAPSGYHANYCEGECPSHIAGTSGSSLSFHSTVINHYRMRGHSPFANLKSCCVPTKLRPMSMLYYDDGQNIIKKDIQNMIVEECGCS


Legend:
[1] = target: T1, activin-A; experiment: activin crosslinking assays
Protocol: Cells were transfected with […] DNA per well with ratios of 0.5 mg TbRII/0.5 mg ALK5/3 mg Cripto unless otherwise indicated for [¹²⁵I]-TGF-b1 crosslinking or […] ActRII/1 mg Cripto/1 mg vector for [¹²⁵I]activin-A crosslinking. As necessary, empty vector was used to keep the amount of DNA transfected constant at […]. […] Cells were then rinsed in HDB, incubated in HDB containing 0.5 mM disuccinylsuberate (DSS) for 30 min on ice, rinsed in HDB and then solubilized in lysis buffer (TBS containing 1% NP-40, 0.5% deoxycholate and 2 mM EDTA) for 1 h on ice. Solubilized, crosslinked complexes were incubated for approximately 24 h at 4° C. with […] of either anti-FLAG (M2), anti-His or anti-myc antibodies. Immune complexes were precipitated using protein-G agarose and analyzed using SDS-PAGE and autoradiography.

[2] = target: T1, activin-A; experiment: not described at this place

| binding result [1] | binding result [2] | Binder |
| --- | --- | --- |
| no binding |  | Cripto DEGF mutant (receptor, C-terminal GPI anchor) FEFGPVAGRDLAIRDNSIWDQKEPAVRDRSFQFVPSVGIQNSKEHCGSILHGTWLPKKCSLCRCWHGQLHCLPQTFLPGCD |
|  | no binding | Cripto EGF1•2mCFC mutant (N69G, T72A, R88G, E91G, H104G, W107G) (receptor, C-terminal GPI anchor) FEFGPVAGRDLAIRDNSIWDQKEPAVRDRSFQFVPSVGIQNSKSLNKTCCLGGGACILGSFCACPPSFYGGNCGHDVRKEHCGSILGGTGLPKKCSLCRCWHGQLHCLPQTFLPGCD |

Reference: US20110009319A1 (RESEARCH DEVELOPMENT FOUNDATION, published 2011)
